B1: IkappaB-alpha: recombinant IκB-α protein expressed in Escherichia coli from iκB-α/pGEX-2T construct (protein, UniProt P25963 1-317, looked up)
NF-kappa-B inhibitor alpha: MFQAAERPQEWAMEGPRDGLKKERLLDDRHDSGLDSMKDEEYEQMVKELQEIRLEPQEVPRGSEPWKQQLTEDGDSFLHLAIIHEEKALTMEVIRQVKGDLAFLNFQNNLQQTPLHLAVITNQPEIAEALLGAGCDPELRDFRGNTPLHLACEQGCLASVGVLTQSCTTPHLHSILKATNYNGHTCLHLASIHGYLGIVELLVSLGADVNAQEPCNGRTALHLAVDLQNPDLVSLLLKCGADVNRVTYQGYSPYQLTWGRPSTRIQQQLGQLTLENLQMLPESEDEESYDTESEFTEFTEDELPYDDCVFGGQRLTL
B2: GST p105 ARD: ankyrin repeat domain of p105 (residues 537-809) downstream of glutathione S-transferase (protein)
chain: AVQDENGDSVLHLAIIHLHSQLVRDLLEVTSGLISDDIINMRNDLYQTPLHLAVITKQEDVVEDLLRAGADLSLLDRLGNSVLHLAAKEGHDKVLSILLKHKKAALLLDHPNGDGLNAIHLAMMSNSLPCLLLLVAAGADVNAQEQKSGRTALHLAVEHDNISLAGCLLLEGDAHVDSTTYDGTTPLHIAAGRGSTRLAALLKAAGADPLVENFEPLYDLDDSWENAGEDEGVVPGTTPLDMATSWQVFDILNGKPYEPEFTSDDLLAQGDM
modifications: left off: a dimerising Fc or GST
notes: ankyrin repeat domain of p105 (residues 537-809) downstream of glutathione S-transferase
B3: p105 ARD: ankyrin repeat domain of p105, amino acid residues 537-809 (SEQ ID NO: 22), GST tag cleaved (protein, listed as Homo sapiens)
chain: TAVQDENGDSVLHLAIIHLHSQLVRDLLEVTSGLISDDIINMRNDLYQTPLHLAVITKQEDVVEDLLRAGADLSLLDRLGNSVLHLAAKEGHDKVLSILLKHKKAALLLDHPNGDGLNAIHLAMMSNSLPCLLLLVAAGADVNAQEQKSGRTALHLAVEHDNISLAGCLLLEGDAHVDSTTYDGTTPLHIAAGRGSTRLAALLKAAGADPLVENFEPLYDLDDSWENAGEDEGVVPGTTPLDMATSWQVFDILNGKPYEPEFTSDDLLAQGDM

Columns and labels:
[1] = test system: 2-OG dependent oxygenases; test: Assays in which 3-fluoro 2-OG replaces 2-OG as co-substrate; type: biochemical; conditions: compound replaces 2-OG under analogous conditions
From the text: [drawing 5] where each R^1, which are the same or different, is as defined above; R^11 represents OH or R^10NH where R^10 is HO, R^1CO or HOOC(X)x wherein R^11 is as defined above, x is 0 or 1 and X is R^1R^1C wherein each R^1, which are the same or different, is as defined above; or R^10 is an amino acid residue H2N(R^1R^1C)CO— wherein each R^1, which are the same or different, is as defined above; n is 1 or 2 and R^12 is H or straight or branched C1 to C6 alkyl; or a salt thereof. Typically X is CH2 or CHOH. Another aspect of the invention concerns analogues of 2-OG that act as improved (relative to 2-OG) co-substrates for the 2-OG dependent oxygenases. Such a compound is 3-fluoro 2-OG.

FIH [2] = biological target: T1, FIH (Homo sapiens, UniProt Q9NWT6); test: FIH assay: decarboxylation of radiolabelled 2OG stimulated by substrate; type: biochemical; conditions: for Stimulation of decarboxylation of 2OG by substrate: recombinant FIH (>95% pure) incubated with each peptide; for % activity relative to GST HIF-1α 786-826: substrate incubated with FIH, ascorbate, 2OG, Fe, catalase, 50 mM Tris-HCl pH 7.5, 37° C., 20 minutes; for Activity + FIH (relative to synthetic HIF1alphaCAD): ankyrin peptide substrates, CAD standard peptide = 100
T1 construct: made in house
Protocol: The peptides shown in Table 1 were tested as potential substrates with purified FIH. The proposed sites of asparaginyl hydroxylation are highlighted in the Table.
In addition p105 ARD and IkappaB-alpha were also assayed as substrates. The substrates were assayed for decarboxylation of 2OG using radiolabelled 2OG as reported in Hewitson et al., J. Biol. Chem. (2002) 277 26351-26355. FIH was incubated with […] of each substrate together with ascorbate, 2OG, Fe and catalase in 50 mM Tris-HCl, pH 7.5 at 37° C. for 20 minutes.
Highly purified (>95% pure) recombinant FIH was incubated individually with each of the p105, IkappaB-alpha and FEM-1 peptides as potential substrates using an assay that measures decarboxylation of 2OG. […] Mutation of the proposed asparaginyl residue to be hydroxylated by FIH in p105 ARD to an alanine residue led to a substantial decrease in 2OG turnover. Incubation of FIH with IkappaB-alpha under standard assay conditions also stimulated turnover to a similar extent as observed for p105 ARD (Table 2).

FIH [3] = biological target: T1, FIH; test: LC-MS analysis of peptide substrates after incubation with FIH; type: biochemical; conditions: after incubation with FIH under standard assay conditions
Protocol: A Jupiter C4 HPLC column (15 cm×4.6 mm) was used to purify the substrate peptides following incubation with FIH using a linear gradient of 5-95% acetonitrile/0.05% formic acid at a flow rate of 1 ml/min. The eluate from the column was analysed by a MICROMASS™ ZMD quadrupole mass spectrometer in positive mode.
(§1) To check for direct peptide substrate hydroxylation, assay mixtures with each of the peptide substrates were analysed by both NMR and LC-MS.

FIH [4] = biological target: T1, FIH; test: 2D-NMR of peptides after incubation with FIH; type: biochemical; conditions: standard assay conditions
Protocol: Both the FEM-1 and IkappaB-alpha peptides (2 mg) were incubated with FIH under standard assay conditions. Peptides were purified from the assay mixture using a Jupiter C4 HPLC column (15 cm×4.6 mm) with a linear gradient of 5-95% acetonitrile. Peptides were lyophilised and then redissolved in neat ^2H2O containing 1,4-dioxan as the internal chemical shift reference (^1H 3.750, ^13C 67.80 p.p.m.). NMR spectra were obtained using a Bruker Avance DRX500 equipped with an inverse-broadband pulsed-field gradient probe.
as §1

2-OG oxygenases = conditions: no test described in this patent; cited from earlier work
FIH [5] = biological target: T1, FIH; test: Tryptic digest and MALDI-TOF mass spectrometry after incubation with FIH; type: biochemical; conditions: incubated with FIH under standard assay conditions, then tryptic digestion; linear and reflectron mode
Protocol: For in-gel digests, gel pieces were incubated with […] in 20 mM ammonium bicarbonate and incubated at 37° C. for 16 hrs. For solution digests, after incubation with FIH under standard assay conditions, a 25 μM sample of substrate was removed from the assay, combined with 2.5 μM trypsin in 25 mM ammonium bicarbonate and incubated at room temperature for 8 hours.
Both in vitro and in vivo produced p105 samples were analysed using an Ettan™ MALDI-ToF Pro mass spectrometer in reflectron mode (Amersham Biosciences) with ANG III and hACTH peptides as internal standards. Tryptic fragments of in vitro produced IkappaB-alpha were analysed using a MALDI-TOF 2T mass spectrometer (MICROMASS™) in reflectron mode using Substance P, hACTH and insulin (B chain, oxidized) calibration standards.
Recombinant IκB-α was incubated with FIH under standard assay conditions followed by tryptic digestion. The resulting tryptic fragments were analysed using both linear and reflectron mode MALDI-TOF mass spectrometry.

T1 sequence (Q9NWT6 whole entry): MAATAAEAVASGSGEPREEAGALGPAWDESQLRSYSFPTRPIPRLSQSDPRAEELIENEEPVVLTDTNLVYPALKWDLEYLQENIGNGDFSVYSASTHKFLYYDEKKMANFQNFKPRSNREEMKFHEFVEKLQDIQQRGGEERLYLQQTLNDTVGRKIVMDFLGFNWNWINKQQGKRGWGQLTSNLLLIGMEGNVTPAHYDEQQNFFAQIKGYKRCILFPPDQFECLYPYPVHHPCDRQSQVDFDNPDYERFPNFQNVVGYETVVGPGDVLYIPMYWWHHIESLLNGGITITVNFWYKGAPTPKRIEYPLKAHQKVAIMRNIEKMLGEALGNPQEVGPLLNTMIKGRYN

Molecule | % activity relative to GST HIF-1α 786-826 (FIH [2]) [%] | Hydroxylation of peptide observed by LC-MS analysis (FIH [3]) | Activity + FIH (relative to synthetic HIF1alphaCAD) (FIH [2]) | further results
O=C(O)CC(F)C(=O)C(=O)O (stereo not drawn) [3-fluoro 2-OG, 3-fluoro-2-oxoglutaric acid] | – | – | – | Level of asparagine hydroxylation as co-substrate compared with 2-OG [1]: higher level of asparagine hydroxylation
IkBa 21 mer: fragment of IκB-α, YLGIVELLVSLGADVNAQEPC (SEQ ID NO: 1) (listed as Homo sapiens) | 111 | hydroxylated | – | Stimulation of decarboxylation of 2OG by substrate (FIH [2]): roughly equivalent to HIF-1α CAD
p105 21 mer: fragment of p105, SLPCLLLLVAAGADVNAQEQK (SEQ ID NO: 2) (listed as Homo sapiens) | 100 | – | – | Stimulation of decarboxylation of 2OG by substrate (FIH [2]): roughly equivalent to HIF-1α CAD; 2D-NMR spectra of peptide after incubation with FIH (FIH [4]): consistent with asparaginyl hydroxylation
FGIF: fragment of FGIF, NTRVASFLLQHDADINAQTK (SEQ ID NO: 20) (listed as Homo sapiens) | – | Yes | 168 | –
Gankyrin/p28-II: fragment of Gankyrin/p28-II, RDEIVKALLGKGAQVNAVNQ (SEQ ID NO: 17) (listed as Homo sapiens) | – | Yes | 116 | –
Myotrophin: fragment of Myotrophin, QLEILEFLLLKGADINAPDK (SEQ ID NO: 18) (listed as Homo sapiens) | – | Yes | 154 | –
GST HIF-1α 786-826: glutathione-S-transferase tagged fragment of the HIF transactivation domains (residues 786-826) [reference compound] | 100 | – | – | –
M110: fragment of M110, YTEVLKLLIQAGYDVNIKDY (SEQ ID NO: 19) (listed as Homo sapiens) | – | Yes | 122 | –
p19-INK-4d: fragment of P19-INK4d, FLDTLKVLVEHGADVNVPDG (SEQ ID NO: 13) (listed as Homo sapiens) | – | Yes | 124 | –
FEM-1 21 mer: fragment of FEM-1, NALVTKLLLDCGAEVNAVDNE (SEQ ID NO: 3) (listed as Homo sapiens) | 89 | hydroxylated | – | Stimulation of decarboxylation of 2OG by substrate (FIH [2]): roughly equivalent to HIF-1α CAD; 2D-NMR spectra of peptide after incubation with FIH (FIH [4]): consistent with asparaginyl hydroxylation
O=C(O)CC1CC(=O)N(O)C1=O (stereo not drawn) [Is52, (1-hydroxy-2,5-dioxo-pyrrolidin-3-yl) acetic acid] | – | – | – | Activity (in words) (2-OG oxygenases): highly active
2-5A-d-R: fragment of 2-5A-d-R, VEVLKILLDEMGADVNACDN (SEQ ID NO: 16) (listed as Homo sapiens) | – | Yes | 27.8 | –
GABPbeta: fragment of GABPbeta, HASIVEVLLKHGADVNAKDM (SEQ ID NO: 14) (listed as Homo sapiens) | – | Yes | 107 | –
CAD: HIF C-terminal transactivation domain standard peptide DESGLPQLTSYDCEVNAPI (SEQ ID NO: 11) (listed as Homo sapiens) [reference compound] | 75 | Yes | 100 | –
Tankyrase 1/2: fragment of Tankyrase, NLEVAEYLLEHGADVNAQDK (SEQ ID NO: 15) (listed as Homo sapiens) | – | Yes | 107 | –
B1 | 144 | – | – | Hydroxylation of tryptic fragment (MALDI-TOF) (FIH [5]): hydroxylation of the fragment
B2 | 129 | – | – | –
B3 | 164 | – | – | –

— patent US7638295B2, “Assays for identifying modulators of the hydroxylation of ankyrin repeat proteins by 2-oxoglutarate dependent oxygenase and methods of using the same” (priority 2004, dated 2009)
